Experiments:
[1] = biological target: T1, catalytic domain of MMP-14 (cdMMP-14) (human, UniProt P50281 114-287, limits assumed, biotinylated (Sulfo-NHS-LC-Biotin) where immobilised via streptavidin); assay: summary sentence on the Examples; method not given
T1 construct: also called matrix metalloproteinase-14 catalytic domain; wild-type MMP-14

[2] = biological target: T1, catalytic domain of MMP-14 (cdMMP-14); assay: SPR (Biacore), MMP-14 amine-coupled to the chip, Fab as analyte, 25 °C
[3] = biological target: T1, catalytic domain of MMP-14 (cdMMP-14); assay: surface plasmon resonance (Biacore), MMP-14 immobilised on the chip, Fab 3A2 injected at 10 nM; table beside the sensorgrams
[4] = biological target: T1, catalytic domain of MMP-14 (cdMMP-14); assay: surface plasmon resonance (Biacore), MMP-14 immobilised on the chip, Fab 3A2 injected at 15 nM; table beside the sensorgrams
[5] = biological target: T1, catalytic domain of MMP-14 (cdMMP-14); assay: SPR (Biacore), KD from koff/kon
[6] = biological target: T2, MMP-14 catalytic domain mutant F260A (human, UniProt P50281 114-287, limits assumed); assay: competitive ELISA: 10 nM Fab 3A2 incubated with the mutant, then captured on immobilised wild-type MMP-14
T2 construct: also called F260A MMP-14 mutant
Method: (§1) Bound Fabs were detected using the anti-Fab-HRP conjugate. The half-maximal effective concentration (EC₅₀) was calculated from a four-parametric logistic curve-fitting analysis.

[7] = biological target: T1, catalytic domain of MMP-14 (cdMMP-14); assay: ELISA, Fab titrated on immobilised biotin-cdMMP-14, anti-Fab-HRP
[8] = biological target: T1, catalytic domain of MMP-14 (cdMMP-14); assay: cell-based or functional assay
[9] = biological target: MMP-14 catalytic domain mutant T190A (human, UniProt P50281 114-287, limits assumed); assay: cell-based or functional assay
[10] = biological target: MMP-14 catalytic domain mutant Y203A (human, UniProt P50281 114-287, limits assumed); assay: cell-based or functional assay
[11] = biological target: MMP-14 catalytic domain mutant F198A (human, UniProt P50281 114-287, limits assumed); assay: cell-based or functional assay
[12] = biological target: T2, MMP-14 catalytic domain mutant F260A; assay: cell-based or functional assay
[13] = biological target: MMP-14 catalytic domain mutant F204A (human, UniProt P50281 114-287, limits assumed); assay: cell-based or functional assay
[14] = biological target: MMP-14 catalytic domain mutant N231A (human, UniProt P50281 114-287, limits assumed); assay: cell-based or functional assay
[15] = biological target: T1, catalytic domain of MMP-14 (cdMMP-14); assay: surface plasmon resonance (Biacore), MMP-14 immobilised on the chip, Fab 3A2 injected at 20 nM; table beside the sensorgrams
[16] = biological target: T1, catalytic domain of MMP-14 (cdMMP-14); assay: cell-based or functional assay; remark: listed apart in the source
[17] = biological target: T3, catalytic domain of MMP-9 (cdMMP-9) (human, UniProt P14780 107-443, limits assumed); assay: ELISA, purified Fab at 50, 100, 250 and 500 nM on immobilised MMP catalytic domain, anti-Fab-HRP, OD450
T3 sequence: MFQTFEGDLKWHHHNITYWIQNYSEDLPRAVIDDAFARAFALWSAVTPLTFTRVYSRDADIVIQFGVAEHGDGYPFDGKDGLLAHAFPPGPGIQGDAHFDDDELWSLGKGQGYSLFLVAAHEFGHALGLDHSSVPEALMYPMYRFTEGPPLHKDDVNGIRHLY

[18] = biological target: catalytic domain of MMP-2 (human, UniProt P08253 115-449, limits assumed, biotinylated (Sulfo-NHS-LC-Biotin)); assay: as above
[19] = biological target: T1, catalytic domain of MMP-14 (cdMMP-14); assay: ELISA, Fab titrated on immobilised MMP-14 catalytic domain, anti-Fab-HRP
Method: as §1

[20] = biological target: T1, catalytic domain of MMP-14 (cdMMP-14); assay: summary sentence on the Examples; enzyme inhibition

Chain of catalytic domain of MMP-2 (P08253 other isoform, or with tags, fused parts or gaps limits assumed): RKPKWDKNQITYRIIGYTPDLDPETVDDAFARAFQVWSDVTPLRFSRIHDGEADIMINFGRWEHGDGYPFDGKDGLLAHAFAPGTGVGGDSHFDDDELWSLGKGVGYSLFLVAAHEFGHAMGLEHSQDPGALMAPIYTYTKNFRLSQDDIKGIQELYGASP

B1: Fab 3A2 (Fab, V domains shown)
VH: EVQLVESGGGLVQPGGSLRLSCAASGFNLSSSSMHWVRQAPGKGLEWVASIYPSYSYTYYADSVKGRFTISADTSKNTAYLQMNSLRAEDTAVYYCARVKLQKDKSHQWIRNLVATPYGRYVMDYWGQGTLVTVSS
VL: DIQMTQSPSSLSASVGDRVTITCRASQSVSSAVAWYQQKPGKAPKLLIYSASSLYSGVPSRFSGSRSGTDFTLTISSLQPEDFATYYCQQYGYPITFGQGTKVEIKR
notes: also called R3C9; not shown: His tag at the C-terminus of the heavy chain
Which results are given for B1?
Kd [1]: 4.85 nM; koff [2]: 0.00179 s⁻¹; kon [2]: 368000 M⁻¹ s⁻¹; Kd [3]: 1.74 nM; koff [3]: 0.000667 s⁻¹; kon [3]: 383000 M⁻¹ s⁻¹; Kd [4]: 3.64 nM; koff [4]: 0.00125 s⁻¹; kon [4]: 344000 M⁻¹ s⁻¹; Kd [5]: 4.76 nM; binding result [6]: no binding (tested: 0-2,000 nM mutant); EC50 [7]: 3.8 nM; Inhibition potency (FRET IC50) [8]: 9.7 nM; inhibition (%) of peptide cleavage: 50 nM MMP-14 mutant, 5 uM Fab 3A2, 1 uM quenched fluorescent substrate [9]: 95%; inhibition (%) of peptide cleavage: 50 nM MMP-14 mutant, 5 uM Fab 3A2, 1 uM quenched fluorescent substrate [10]: 98%; inhibition (%) of peptide cleavage: 50 nM MMP-14 mutant, 5 uM Fab 3A2, 1 uM quenched fluorescent substrate [11]: 98%; inhibition (%) of peptide cleavage: 50 nM MMP-14 mutant, 5 uM Fab 3A2, 1 uM quenched fluorescent substrate [12]: 0%; inhibition (%) of peptide cleavage: 50 nM MMP-14 mutant, 5 uM Fab 3A2, 1 uM quenched fluorescent substrate [13]: 96%; inhibition (%) of peptide cleavage: 50 nM MMP-14 mutant, 5 uM Fab 3A2, 1 uM quenched fluorescent substrate [14]: 90%; Kd [15]: 9.17 nM; koff [15]: 0.00347 s⁻¹; kon [15]: 378000 M⁻¹ s⁻¹; IC50 by FRET Assay [16]: 9.7 nM; binding result [17]: no binding (tested: 500 nM); binding result [18]: no binding (tested: 500 nM); EC50 [19]: 3.8 nM; Ki [20]: 10 nM
